We go through nine molecules from patent publication US20260109770A1 (REMD BIOTHERAPEUTICS, published 2026).

Residue numbers refer to the chain shown, from its start.

The labels stand for the following.
B1: mouse antibody 516D7D12 (MAb 10) (antibody, V domains shown)
VH: EVQLVESGGGLVQPKGSLKLSCAASGFSFNTYAMNWVRQAPGKGLEWVARIRTKSNNYATYYADSVKDRFTISRDDSESMLYLQMNNLKTEDTAMYYCVRGGSGLRYVRYFDVWGTGTTVTVSS
VL: DIVMTQATPSVPVTPGESVSISCRSSKSLLHSNGNTYLYWFLQRPGQSPQLLIYRMSNLASGVPERFSGSGSGSAFTLRVSRVEAEDVGVYYCMQHLEYPFTFGSGTKLEIK
B2: mouse antibody 504E12D8D12 (MAb 18) (antibody, V domains shown)
VH: B1 VH with D64A, S79T, R106N
VL: B1 VL with T8A, P12F, T14I, E65D, V80I
B3: mouse antibody 525F2F3F11 (MAb 11) (antibody, V domains shown)
VH: B1 VH with S79N
VL: B1 VL
B4: mouse antibody 526G1C12 (MAb 16) (antibody, V domains shown)
VH: B1 VH with N30K, K43E, S79T, R106N, T116P
VL: B1 VL with T8A, P12L, I21F, Y54F, E65D, V80I
B5: mouse antibody 507B6B10 (MAb 14) (antibody, V domains shown)
VH: B1 VH with T53S, L105I
VL: B1 VL with T8A, L30Q, T36I, E65D, V80I
B6: mouse antibody 531A3E12H8 (MAb 17) (antibody, V domains shown)
VH: B1 VH with Y61F, D75H, L105I
VL: B1 VL with T8A, P12T, N58D, E65D, V80I
B7: mouse antibody 530H3G7D9 (MAb 12) (antibody, V domains shown)
VH: EVQLVESGGGLVQPKGSLKLSCAASGFSFNTYAMNWVRQAPGKGLDWVARIRSKSNNYATYYADSVKDRFTISRDDSESMLYLQMNNLKTEDTAMYFCVRQTYGSRDYAMDYWGQGTSVTVSS
VL: DVVMTQTPLSLPVSLGDQASISCRSSQSLVHSNGNTYLHWYLQKPGQSPKLLIYKVSNRFSGVPDRFSGSGSGTDFTLKISRVEAEDLGVYFCCQSTHVPPYTFGGGTKLEIK
B8: mouse antibody 531B9B1C9 (MAb 13) (antibody, V domains shown)
VH: B7 VH with T31A
VL: B7 VL
B9: mouse antibody 509H4E10B3 (MAb 15) (antibody, V domains shown)
VH: B7 VH with K15R, T31A, D46E, Y58F, F97Y
VL: B7 VL with Q18R, K50R, C94S

Sequence of human C-C chemokine receptor type 8 (hCCR8) (P51685 whole entry): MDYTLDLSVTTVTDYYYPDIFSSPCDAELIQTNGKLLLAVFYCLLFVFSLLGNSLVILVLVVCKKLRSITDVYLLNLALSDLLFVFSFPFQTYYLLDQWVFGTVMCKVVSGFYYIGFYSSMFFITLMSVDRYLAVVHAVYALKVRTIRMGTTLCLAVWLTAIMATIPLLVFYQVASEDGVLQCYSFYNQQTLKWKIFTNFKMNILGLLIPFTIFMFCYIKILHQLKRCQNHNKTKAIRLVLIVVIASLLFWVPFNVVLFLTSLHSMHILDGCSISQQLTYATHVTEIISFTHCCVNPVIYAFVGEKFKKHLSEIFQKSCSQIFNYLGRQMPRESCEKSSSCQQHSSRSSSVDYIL

The assay has as its target human C-C chemokine receptor type 8 (hCCR8) (human, UniProt P51685 1-355). In words: cell-based or functional assay.
For the molecule B1, the “inhibition of β-arrestin production (CCR8 CHO-K1 β-arrestin bioassay, 2 nM hCCL1, subclone supernatant)” value (shortened to “inhibition of β-arrestin production”) is ≥ 50%. The value for B2 was ≥ 50%.

With B3, the “inhibition of β-arrestin production” value was ≥ 50%.

On to B4, for which the “inhibition of β-arrestin production” value was ≥ 50%. The value for B5 was ≥ 50%.

Take B6: the “inhibition of β-arrestin production” value was ≥ 50%. The value for B7 was ≥ 50%.

Turning to B8, the “inhibition of β-arrestin production” value was ≥ 50%. The figure for B9 is ≥ 50%.
